The numbers were not newly measured in doi:10.1101/2020.11.23.394015, which cites them from elsewhere.

In the data set the target is Glu89 (UniProt position 105, IDALNENKVLV). As to conditions: folded; closed-to-open EF loop (Tanford) transition.

Regarding beta-lactoglobulin (BBL) (Bos taurus), the pKa was ~ 7.3.
